Target: recombinant H03-IPSE (Schistosoma haematobium)
Test: SDS-PAGE under non-reducing and reducing conditions; 4-20% gradient gel, Coomassie stain and anti-His Western blot; protein purified by IMAC from serum-free culture supernatant; run non-reduced (NR) or reduced (R)

How did the stoichiometry N turn out when recombinant H03-IPSE (natural protein) was run?
Its stoichiometry N is 2.

From publication PMC5695104
